The subject of one test is GSK-3β (beta). In words: Addition of p38 MAPK inhibitor and AMPK inhibitor: phospho-GSK-3β western blotting. Format: cell-based, rat. The settings on record: 1 μg/mL adiponectin 30 min, no inhibitor. The protocol: The aforementioned B103 neuroblastoma cells (α (alpha)S) were inoculated on the 6-well plate and cultured to a state of about 80-90% confluence. After washing with PBS, the aforementioned cells were further cultured for 10 min in an inhibition test medium prepared by adding either 5 μM p38 MAPK inhibitor (SB203580, Promega) or 5 μM AMPK inhibitor (Compound C, Calbiochem) to a serum-free medium. As a control, DMSO was added to a serum-free medium instead of the aforementioned inhibitors. Later, either recombinant human adiponectin (1 μg/mL, trimer, PROSPEC) or PBS was added so as to culture the cells for 30 min. The cells collected were then lysed with the aforementioned cell lysis solution. Supernatants were collected after performing centrifugation at 100,000×g for 30 min, and then subjected to western blotting. Here, western blotting was performed in accordance with the procedures described in example 1.
When performing western blotting to evaluate signal transduction pathways, the anti-phospho-GSK-3β (beta) (Ser9) antibody (D85E12, Cell Signaling Technology), the anti-GSK-3β (beta) antibody (BD Biosciences) and the anti-β (beta)-actin mouse monoclonal antibody (C-15, Sigma-Aldrich Japan Inc.) were used as primary antibodies after being appropriately diluted. Further, the HRP labeled anti-mouse IgG antibody (DAKO) was used as a secondary antibody after being appropriately diluted.

The subject of a further test is tau. In words: Adiponectin addition (3): tau phosphorylation (western blotting). The format is cell-based, rat. The settings on record: 1 μg/mL, 0, 1 and 2 hour(s), B103 neuroblastoma cells (αS). The protocol:
The B103 neuroblastoma cells (α (alpha)S) and the B103 neuroblastoma cells (vector) were inoculated on a 5 cm dish and cultured to a state of about 80-90% confluence. Later, the aforementioned cells were washed with PBS, and then cultured in a serum-free medium for four hours. After washing with PBS, the cells were then cultured in a test medium (adiponectin-added group) prepared by adding recombinant human adiponectin (1_μg/mL, trimer, PROSPEC) to a serum-free medium. As a control, there was used a control medium (adiponectin non-added group) prepared by adding thereto PBS instead of recombinant human adiponectin. A culture time was 0, 10 and 30 min when evaluating signal transduction, 0, 1 and 2 hour(s) when evaluating tau phosphorylation. The cells collected were lysed with a cell lysis solution (1% TritonX-100, 1% Nonidet P-40, 50 mM HEPES, 150 mM NaCl, 10% glycerol, 1.5 mM MgCl2, 1 mM EGTA, 100_mM sodium fluoride, a protease inhibitor (NACALAI TESQUE, INC.)). Supernatants were collected after performing centrifugation at 100,000×g for 30 min, and were used as surfactant soluble fractions when performing western blotting. Here, western blotting was performed in accordance with the procedures described in example 1. […]

For test [1], the target named is T1, human α (alpha)-synuclein recombinant protein (Homo sapiens, UniProt P37840).
T1 construct: made in house
In words: Protein-protein interaction of α-synuclein and adiponectin in test tube (western blotting). The note with it: 48 hours, 37° C. The format is binding. How it is done:
Human adiponectin recombinant protein (ProSpec, IWAI CHEMICALS COMPANY LTD.) 0.5 μg and human α (alpha)-synuclein recombinant protein (Hashimoto et al., Brain Res. 799:301 (1998)) 1.0 μg were incubated for 48 hours in 100 mM sodium acetate solution at 37° C., 500 rpm (Thermomixer, Eppendorf Co., Ltd.). Later, an analysis via western blotting was performed in accordance with procedures similar to those in example 1 through example 6. Each sample was dissolved in 1× sample buffer without 2ME, and heated at 95° C. for 10 min. With regard to a control experiment, incubation was performed at room temperature. Particularly, instead of α (alpha)-synuclein, BSA (1.0 μg) was incubated with adiponectin.
Background: Immunoblotting shows a protein as a band on a membrane.

B1: adiponectin: recombinant human adiponectin (trimer, PROSPEC) added to serum-free medium at 1 μg/mL (protein, UniProt Q15848 19-244, looked up)
Adiponectin: ETTTQGPGVLLPLPKGACTGWMAGIPGHPGHNGAPGRDGRDGTPGEKGEKGDPGLIGPKGDIGETGVPGAEGPRGFPGIQGRKGEPGEGAYVYRSAFSVGLETYVTIPNMPIRFTKIFYNQQNHYDGSTGKFHCNIPGLYYFAYHITVYMKDVKVSLFKKDKAMLFTYDQYQENNVDQASGSVLLHLEVGDQVWLQVYGEGERNGLYADNDNDSTFTGFLLYHDTN
Take B1: in the test with GSK-3β (beta), the “phosphorylated GSK-3β in surfactant soluble fraction” value was “detected”. For the same molecule, in the test on tau, the “amount of phosphorylated tau (Ser 202, Ser 396)” value is recorded as “decreased”. Besides, the dimer of adiponectin entry in test [1] (0.5 μg adiponectin incubated with 1.0 μg α-synuclein) was “further increased”. Also, the adiponectin aggregation entry in test [1] (in the presence of α-synuclein, densitometer values of aggregate range) is “significantly promoted”.

For the origin of these results see US9101618B2, “Method for treating and/or preventing neurodegenerative disease by adiponectin receptor agonist” (TOKYO METROPOLITAN INSTITUTE OF MEDICAL SCIENCE, priority 2011, dated 2015).
